The assay concerns the target T1, MukB^KRK (K1114E, R1122E and K1125E) (E. coli, UniProt P22523 1-1486, K1114E | R1122E | K1125E).
T1 sequence (looked up): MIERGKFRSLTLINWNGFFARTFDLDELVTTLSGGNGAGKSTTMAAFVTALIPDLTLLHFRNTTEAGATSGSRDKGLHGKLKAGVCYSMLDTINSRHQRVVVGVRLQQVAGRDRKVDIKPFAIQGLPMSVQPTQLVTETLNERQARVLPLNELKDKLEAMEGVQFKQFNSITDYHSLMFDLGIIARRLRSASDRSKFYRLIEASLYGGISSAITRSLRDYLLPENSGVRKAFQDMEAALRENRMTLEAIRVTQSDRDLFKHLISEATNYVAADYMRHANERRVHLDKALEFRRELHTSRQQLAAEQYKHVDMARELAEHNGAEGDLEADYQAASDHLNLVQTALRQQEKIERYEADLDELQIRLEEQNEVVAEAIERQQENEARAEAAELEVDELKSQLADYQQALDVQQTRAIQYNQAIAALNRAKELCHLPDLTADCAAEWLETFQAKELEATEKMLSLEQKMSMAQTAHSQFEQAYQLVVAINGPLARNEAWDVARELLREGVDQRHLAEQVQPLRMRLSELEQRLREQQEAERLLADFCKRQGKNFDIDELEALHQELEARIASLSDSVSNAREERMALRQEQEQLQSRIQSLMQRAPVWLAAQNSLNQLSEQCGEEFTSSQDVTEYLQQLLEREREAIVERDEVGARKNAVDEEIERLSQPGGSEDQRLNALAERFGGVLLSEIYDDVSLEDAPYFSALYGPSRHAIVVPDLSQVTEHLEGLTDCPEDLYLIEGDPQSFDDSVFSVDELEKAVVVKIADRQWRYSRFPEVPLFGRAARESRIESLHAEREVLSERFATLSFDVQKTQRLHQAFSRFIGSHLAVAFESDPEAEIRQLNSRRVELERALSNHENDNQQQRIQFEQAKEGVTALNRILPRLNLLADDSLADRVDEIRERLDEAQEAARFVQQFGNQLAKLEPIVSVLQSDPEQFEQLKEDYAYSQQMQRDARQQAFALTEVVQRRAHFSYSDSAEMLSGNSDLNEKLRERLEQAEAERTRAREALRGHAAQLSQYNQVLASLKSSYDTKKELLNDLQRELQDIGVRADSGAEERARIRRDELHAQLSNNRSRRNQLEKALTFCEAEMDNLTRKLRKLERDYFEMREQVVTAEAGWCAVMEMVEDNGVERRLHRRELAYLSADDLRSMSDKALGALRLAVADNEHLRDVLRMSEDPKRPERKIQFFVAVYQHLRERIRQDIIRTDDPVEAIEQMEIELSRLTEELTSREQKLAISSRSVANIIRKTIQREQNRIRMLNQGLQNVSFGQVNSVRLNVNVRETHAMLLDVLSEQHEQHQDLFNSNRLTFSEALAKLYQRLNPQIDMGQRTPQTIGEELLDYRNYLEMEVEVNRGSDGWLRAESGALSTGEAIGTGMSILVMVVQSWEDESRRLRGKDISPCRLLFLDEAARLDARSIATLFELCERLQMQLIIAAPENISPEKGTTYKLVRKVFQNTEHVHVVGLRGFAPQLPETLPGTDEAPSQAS
In words: native gel or EMSA. In general terms: Mobility shift assays separate free from complexed probe on a gel.

B1: His-MukF (natural protein, E. coli, UniProt P60293 1-440, looked up)
chain: MSEFSQTVPELVAWARKNDFSISLPVDRLSFLLAVATLNGERLDGEMSEGELVDAFRHVSDAFEQTSETIGVRANNAINDMVRQRLLNRFTSEQAEGNAIYRLTPLGIGITDYYIRQREFSTLRLSMQLSIVAGELKRAADAAEEGGDEFHWHRNVYAPLKYSVAEIFDSIDLTQRLMDEQQQQVKDDIAQLLNKDWRAAISSCELLLSETSGTLRELQDTLEAAGDKLQANLLRIQDATMTHDDLHFVDRLVFDLQSKLDRIISWGQQSIDLWIGYDRHVHKFIRTAIDMDKNRVFAQRLRQSVQTYFDEPWALTYANADRLLDMRDEEMALRDEEVTGELPEDLEYEEFNEIREQLAAIIEEQLAVYKTRQVPLDLGLVVREYLSQYPRARHFDVARIVIDQAVRLGVAQADFTGLPAKWQPINDYGAKVQAHVIDKY
Regarding B1, the binding result is on record as “binds”.

The values above are taken from publication doi:10.1101/2021.04.12.439405 (bioRxiv, 2021).
